Experimental data from patent publication US20240108766A1 (Bayer, published 2024).
Numbering of substitutions follows the chain as printed.

Assays:
[1] = biological target: T1, human LRRC15 expressed on cells (human, UniProt Q8TF66 22-581); assay: flow cytometry, transfected HEK293
T1 construct: whole, on cells; On HEK293 cells transfected with LRRC15/ZsGreen1 (Retrogenix), on HT29 cells transfected with human LRRC15, and endogenous on Saos-2; also called LRRC15/ZsGreen1 transfected HEK293 cells; HT29-LRRC15
T1 sequence (looked up): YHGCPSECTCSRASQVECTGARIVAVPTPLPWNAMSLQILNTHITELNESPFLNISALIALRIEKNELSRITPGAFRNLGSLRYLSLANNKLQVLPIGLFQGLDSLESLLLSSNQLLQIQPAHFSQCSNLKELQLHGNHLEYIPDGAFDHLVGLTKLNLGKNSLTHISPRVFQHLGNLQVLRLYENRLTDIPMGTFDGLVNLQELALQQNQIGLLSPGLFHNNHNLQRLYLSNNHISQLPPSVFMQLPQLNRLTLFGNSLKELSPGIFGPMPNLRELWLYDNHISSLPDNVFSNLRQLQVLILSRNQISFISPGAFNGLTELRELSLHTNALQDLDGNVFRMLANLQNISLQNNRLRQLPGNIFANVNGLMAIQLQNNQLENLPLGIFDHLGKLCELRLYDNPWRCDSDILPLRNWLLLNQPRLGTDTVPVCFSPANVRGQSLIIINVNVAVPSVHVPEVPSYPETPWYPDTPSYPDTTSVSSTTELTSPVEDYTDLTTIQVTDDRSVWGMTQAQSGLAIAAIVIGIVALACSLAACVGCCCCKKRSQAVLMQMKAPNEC
From the text: Shown is the Median Fluorescence of AF647-labeled secondary antibody versus antibody concentration as determined by flow cytometry.

[2] = biological target: T2, Cathepsin S (CTSS) on transfected HEK293 cells (human, UniProt P25774 115-331); assay: flow cytometry, live transfected HEK293 cells
T2 construct: whole, on cells; also called CTSS/ZsGreen1

[3] = biological target: T1, human LRRC15 expressed on cells; assay: flow cytometry, transfected HEK293; remark: listed apart in the source
[4] = biological target: T1, human LRRC15 expressed on cells; assay: flow cytometry, transfected HEK293; TPP-12942, first of the three values listed 'respectively'
From the text: (§1) Plotted is the Median AF647 Fluorescence versus antibody concentration. Background binding of each antibody to the cells (i.e. binding to ZsGreen1-only transfectants) is subtracted from the LRRC15 transfected cells at each antibody dose.
(§2) Shown is the median fluorescence of AF647 labeled secondary antibody versus antibody concentration as determined by flow cytometry. Background binding of each antibody to the cells (i.e. binding to ZsGreen1 only transfectants) can be subtracted from the LRRC15 transfected cells for each antibody concentration.

[5] = biological target: T1, human LRRC15 expressed on cells; assay: flow cytometry, transfected HEK293; remark: listed apart in the source
[6] = biological target: T3, Ephrin type-B receptor 6 (EPHB6) on transfected HEK293 cells (human, UniProt O15197 32-1021); assay: flow cytometry, live transfected HEK293 cells
T3 construct: whole, on cells; also called EPHB6/ZsGreen1
T3 sequence (looked up): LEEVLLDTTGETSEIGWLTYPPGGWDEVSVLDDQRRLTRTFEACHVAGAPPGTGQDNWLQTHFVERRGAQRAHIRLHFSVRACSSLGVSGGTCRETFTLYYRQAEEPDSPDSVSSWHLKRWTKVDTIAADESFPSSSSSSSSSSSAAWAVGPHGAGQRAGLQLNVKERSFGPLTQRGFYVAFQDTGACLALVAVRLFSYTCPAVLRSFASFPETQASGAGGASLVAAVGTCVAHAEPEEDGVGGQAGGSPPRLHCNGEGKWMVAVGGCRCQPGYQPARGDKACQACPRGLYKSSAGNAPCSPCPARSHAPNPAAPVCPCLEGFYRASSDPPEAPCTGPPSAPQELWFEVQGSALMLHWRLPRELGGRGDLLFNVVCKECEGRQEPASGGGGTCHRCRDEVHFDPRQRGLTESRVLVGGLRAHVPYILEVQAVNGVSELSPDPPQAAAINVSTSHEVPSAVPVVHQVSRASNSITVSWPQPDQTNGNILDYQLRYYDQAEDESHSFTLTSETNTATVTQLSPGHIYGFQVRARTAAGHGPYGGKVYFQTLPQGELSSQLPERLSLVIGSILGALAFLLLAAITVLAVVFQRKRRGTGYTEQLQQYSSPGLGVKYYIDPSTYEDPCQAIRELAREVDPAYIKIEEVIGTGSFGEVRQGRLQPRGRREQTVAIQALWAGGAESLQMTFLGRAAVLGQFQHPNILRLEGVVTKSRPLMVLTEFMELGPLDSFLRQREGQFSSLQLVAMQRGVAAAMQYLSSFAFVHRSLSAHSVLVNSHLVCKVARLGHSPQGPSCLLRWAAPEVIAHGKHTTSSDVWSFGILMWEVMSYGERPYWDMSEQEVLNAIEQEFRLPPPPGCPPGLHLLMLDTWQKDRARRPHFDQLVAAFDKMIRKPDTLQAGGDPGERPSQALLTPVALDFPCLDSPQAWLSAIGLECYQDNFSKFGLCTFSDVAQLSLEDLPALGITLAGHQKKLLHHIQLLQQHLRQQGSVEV

[7] = biological target: T3, Ephrin type-B receptor 6 (EPHB6) on …; assay: flow cytometry, transfected HEK293, 0 µg/ml
[8] = biological target: T3, Ephrin type-B receptor 6 (EPHB6) on …; assay: flow cytometry, transfected HEK293, 0.1 µg/ml
[9] = biological target: T3, Ephrin type-B receptor 6 (EPHB6) on …; assay: flow cytometry, transfected HEK293, 0.5 µg/ml
[10] = biological target: T3, Ephrin type-B receptor 6 (EPHB6) on …; assay: flow cytometry, transfected HEK293, 2.5 µg/ml
[11] = biological target: T3, Ephrin type-B receptor 6 (EPHB6) on …; assay: flow cytometry, transfected HEK293, 0.02 µg/ml
[12] = biological target: T3, Ephrin type-B receptor 6 (EPHB6) on …; assay: flow cytometry, transfected HEK293, 12.5 µg/ml
[13] = biological target: T1, human LRRC15 expressed on cells; assay: flow cytometry, transfected HEK293; TPP-17078, second of the three values listed 'respectively'
From the text: as §1, §2

T2 sequence (P25774 115-331): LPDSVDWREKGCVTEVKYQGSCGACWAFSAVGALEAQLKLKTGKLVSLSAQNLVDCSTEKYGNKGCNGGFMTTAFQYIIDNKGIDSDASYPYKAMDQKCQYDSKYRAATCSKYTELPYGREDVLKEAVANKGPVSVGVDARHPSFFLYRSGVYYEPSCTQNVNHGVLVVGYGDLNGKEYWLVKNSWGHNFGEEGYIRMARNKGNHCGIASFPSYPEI

B1: TPP-14389 (antibody, human IgG1, kappa, V domains shown)
VH: EVQLLESGGGLVQPGGSLRLSCAASGFTFSGYMMSWVRQAPGKGLEWVSGIYPSPGYTYYADSVKGRFTISRDNSKNTLYLQMNSLRAEDTAVYYCAREKASDLFGSYSEALDYWGQGTLVTVSS
VL: DIQMTQSPDSLSASVGDRVTITCRASQDVGSWLAWYQQKPGKAPKLLIFAASSLESGIPSRFSGSGSGTDFTLTISSLQPEDFATYYCQQANGFPLTFGGGTKVEIKR
notes: also called 13612-rec02-hIgG1Kappa
In the case of B1, the EC50 [1] is reported as 0.26 µg/mL and the binding result [2] is reported as “no binding (tested: up to 62.5 µg/ml)”.

B2: TPP-12942 (antibody, human IgG1, kappa, V domains shown)
VH: EVQLVQSGAEVKKPGASVKVSCKASGYKFSSYWIEWVKQAPGQGLEWIGEILPGSDTTNYNEKFKDRATFTSDTSINTAYMELSRLRSDDTAVYYCARDRGNYRAWFGYWGQGTLVTVSS
VL: DIQMTQSPSSLSASVGDRVTITCRASQDISNYLNWYQQKPGGAVKFLIYYTSRLHSGVPSRFSGSGSGTDYTLTISSLQPEDFATYFCQQGEALPWTFGGGTKVEIKR
notes: Prior art humanized IgG1 kappa antibody, used as comparator; also called huM25; huM25-hIgG1Kappa
Binder B2 has an EC50 [3] of 1.4 µg/mL and an EC50 [4] of 0.2 µg/mL.

B3: TPP-17421 (antibody, human IgG1, kappa, V domains shown)
VH: B2 VH with T57W, G108Q
VL: B2 VL with D28S, N31S, V44P, T51A, R53S, H55Q, F87Y, E92L, A93E
notes: also called 438H-M306-C11-hIgG1Kappa
In the case of B3, the EC50 [5] is reported as 0.42 µg/mL, the binding result [6] is reported as “no binding (tested: up to 62.5 µg/ml)” and the “Median Fluorescence AF647” value [7] is reported as 628. For the same binder, the “Median Fluorescence AF647” value [8] was 2810, the “Median Fluorescence AF647” value [9] was 3150 and the “Median Fluorescence AF647” value [10] was 4150. For the same binder, the “Median Fluorescence AF647” value [11] was 1770 and the “Median Fluorescence AF647” value [12] was 5390.

B4: TPP-17078 (antibody, human IgG1, kappa, V domains shown)
VH: B2 VH
VL: B2 VL with D28S, N31S, V44P, T51A, R53S, H55Q, F87Y, E92F, A93S
notes: also called 438H-M308-H05-hIgGkappa
B4 was tested, and the “Median Fluorescence AF647” value [7] was 633, the “Median Fluorescence AF647” value [8] was 3190 and the “Median Fluorescence AF647” value [9] was 3680. For the same binder, the “Median Fluorescence AF647” value [10] was 5480, the “Median Fluorescence AF647” value [11] was 2540 and the “Median Fluorescence AF647” value [12] was 7970. For the same binder, the EC50 [13] was 0.15 µg/mL.
